Numbering of substitutions follows the chain as printed.
T1: human GIP receptor (human) (UniProt P48546)
T1 sequence (looked up): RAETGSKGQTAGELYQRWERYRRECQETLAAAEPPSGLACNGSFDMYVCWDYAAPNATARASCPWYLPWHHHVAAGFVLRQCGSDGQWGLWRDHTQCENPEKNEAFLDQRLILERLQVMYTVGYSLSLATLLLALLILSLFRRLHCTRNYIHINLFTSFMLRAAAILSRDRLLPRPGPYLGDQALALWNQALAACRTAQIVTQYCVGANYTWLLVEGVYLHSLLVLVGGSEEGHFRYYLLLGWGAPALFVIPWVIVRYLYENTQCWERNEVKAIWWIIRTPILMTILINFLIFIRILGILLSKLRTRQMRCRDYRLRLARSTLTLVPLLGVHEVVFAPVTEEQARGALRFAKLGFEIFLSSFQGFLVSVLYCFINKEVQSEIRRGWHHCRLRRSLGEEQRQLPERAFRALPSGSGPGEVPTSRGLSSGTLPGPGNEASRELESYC

B1: Example 611 (peptide)
chain: YXQGTXTSDXSILLDKKAQXAFIEYLEEGGPSSGAPPPSGEEE
modifications: non-natural residues; Lys acylated C18 diacid; C-terminal amide; synthetic construct; SITE 2: note = 2-Aminoisobutyric Acid; SITE 6: note = alpha-methyl-2-fluoro-L-phenylalanine; SITE 10: note = 3-(4-Pyridyl)-L-alanine; SITE 17: note = Lysine is chemically modified through conjugation of the epsilon-amino group of the Lysine side chain with (gamma-Glu)2-CO-(CH2)1
B2: Example 620 (peptide)
chain: B1 chain with E41A, E42G
modifications: Aib, αMeF(2F), 4Pal; acylated K; C-terminal amide; synthetic construct; SITE 2: note = 2-Aminoisobutyric Acid; SITE 6: note = alpha-methyl-2-fluoro-L-phenylalanine; SITE 10: note = 3-(4-Pyridyl)-L-alanine; SITE 17: note = Lysine is chemically modified through conjugation of the epsilon-amino group of the Lysine side chain with (gamma-Glu)2-CO-(CH2)1
B3: Example 628 (peptide)
chain: B1 chain with L13X, A35E, S39E, E41T, E42G
modifications: non-natural residues; lipidated Lys; C-terminal amide; synthetic construct; SITE 2: note = 2-Aminoisobutyric Acid; SITE 6: note = alpha-methyl-2-fluoro-L-phenylalanine; SITE 10: note = 3-(4-Pyridyl)-L-alanine; SITE 13: note = alpha-methyl-leucine; SITE 17: note = Lysine is chemically modified through conjugation of the epsilon-amino group of the Lysine
B4: Example 622 (peptide)
chain: B1 chain with L13X, E41T, E42G
modifications: non-natural residues; (γGlu)2-C18 diacid acyl; C-terminal amide; synthetic construct; SITE 2: note = 2-Aminoisobutyric Acid; SITE 6: note = alpha-methyl-2-fluoro-L-phenylalanine; SITE 10: note = 3-(4-Pyridyl)-L-alanine; SITE 13: note = alpha-methyl-leucine; SITE 17: note = Lysine is chemically modified through conjugation of the epsilon-amino group of the Lysine
B5: Example 631 (peptide)
chain: B1 chain with L13X, E27A, A35E, E41S
modifications: non-natural residues; acylated Lys; C-terminal amide; synthetic construct; SITE 2: note = 2-Aminoisobutyric Acid; SITE 6: note = alpha-methyl-2-fluoro-L-phenylalanine; SITE 10: note = 3-(4-Pyridyl)-L-alanine; SITE 13: note = alpha-methyl-leucine; SITE 17: note = Lysine is chemically modified through conjugation of the epsilon-amino group of the Lysine
B6: Example 618 (peptide)
chain: B1 chain with E41S, E42G
modifications: non-natural residues, C18 diacid acylation, C-terminal amide; synthetic construct; SITE 2: note = 2-Aminoisobutyric Acid; SITE 6: note = alpha-methyl-2-fluoro-L-phenylalanine; SITE 10: note = 3-(4-Pyridyl)-L-alanine; SITE 17: note = Lysine is chemically modified through conjugation of the epsilon-amino group of the Lysine side chain with (gamma-Glu)2-CO-(CH2)1
B7: Example 625 (peptide)
chain: B1 chain with L13X, A35E, E42G
modifications: non-natural residues; lipidated Lys; C-terminal amide; synthetic construct; SITE 2: note = 2-Aminoisobutyric Acid; SITE 6: note = alpha-methyl-2-fluoro-L-phenylalanine; SITE 10: note = 3-(4-Pyridyl)-L-alanine; SITE 13: note = alpha-methyl-leucine; SITE 17: note = Lysine is chemically modified through conjugation of the epsilon-amino group of the Lysine
B8: Example 621 (peptide)
chain: B1 chain with E42G
modifications: non-natural residues, lysine acylation, C-terminal amide; synthetic construct; SITE 2: note = 2-Aminoisobutyric Acid; SITE 6: note = alpha-methyl-2-fluoro-L-phenylalanine; SITE 10: note = 3-(4-Pyridyl)-L-alanine; SITE 17: note = Lysine is chemically modified through conjugation of the epsilon-amino group of the Lysine side chain with (gamma-Glu)2-CO-(CH2)1
B9: Example 619 (peptide)
chain: B1 chain with E41G, E42G
modifications: non-natural residues; Lys acylated C18 diacid; C-terminal amide; synthetic construct; SITE 2: note = 2-Aminoisobutyric Acid; SITE 6: note = alpha-methyl-2-fluoro-L-phenylalanine; SITE 10: note = 3-(4-Pyridyl)-L-alanine; SITE 17: note = Lysine is chemically modified through conjugation of the epsilon-amino group of the Lysine side chain with (gamma-Glu)2-CO-(CH2)1
B10: Example 635 (peptide)
chain: B1 chain with L13X, A21X, A35E, E41S
modifications: non-natural residues; C18 diacid-(γ-Glu)2 acyl on Lys; C-terminal amide; synthetic construct; SITE 2: note = 2-Aminoisobutyric Acid; SITE 6: note = alpha-methyl-2-fluoro-L-phenylalanine; SITE 10: note = 3-(4-Pyridyl)-L-alanine; SITE 13: note = alpha-methyl-leucine; SITE 17: note = Lysine is chemically modified through conjugation of the epsilon-amino group of the Lysine
B11: Example 624 (peptide)
chain: B1 chain with L13X, A35E, E41T, E42G
modifications: non-natural residues; lipidated Lys; C-terminal amide; synthetic construct; SITE 2: note = 2-Aminoisobutyric Acid; SITE 6: note = alpha-methyl-2-fluoro-L-phenylalanine; SITE 10: note = 3-(4-Pyridyl)-L-alanine; SITE 13: note = alpha-methyl-leucine; SITE 17: note = Lysine is chemically modified through conjugation of the epsilon-amino group of the Lysine
B12: Example 623 (peptide)
chain: B1 chain with L13X, E42G
modifications: C-terminal amide; lysine acylated with (γ-Glu)2-C18 diacid; synthetic construct; SITE 2: note = 2-Aminoisobutyric Acid; SITE 6: note = alpha-methyl-2-fluoro-L-phenylalanine; SITE 10: note = 3-(4-Pyridyl)-L-alanine; SITE 13: note = alpha-methyl-leucine; SITE 17: note = Lysine is chemically modified through conjugation of the epsilon-amino group of the Lysine
B13: Example 634 (peptide)
chain: B1 chain with L13X, E27Q, A35E, E41S
modifications: (γGlu)2-C18 diacid on Lys; non-natural residues; amide; synthetic construct; SITE 2: note = 2-Aminoisobutyric Acid; SITE 6: note = alpha-methyl-2-fluoro-L-phenylalanine; SITE 10: note = 3-(4-Pyridyl)-L-alanine; SITE 13: note = alpha-methyl-leucine; SITE 17: note = Lysine is chemically modified through conjugation of the epsilon-amino group of the Lysine

Experiments:
Experiment in all cases: cell-based or functional assay
[1] = target: T1, human GIP receptor (human)
[2] = target: human glucagon receptor (human) (UniProt P47871)
hGLP-1R = hGLP-1R (Homo sapiens, UniProt P43220)
hGLP-1R, sequence (P43220 24-463): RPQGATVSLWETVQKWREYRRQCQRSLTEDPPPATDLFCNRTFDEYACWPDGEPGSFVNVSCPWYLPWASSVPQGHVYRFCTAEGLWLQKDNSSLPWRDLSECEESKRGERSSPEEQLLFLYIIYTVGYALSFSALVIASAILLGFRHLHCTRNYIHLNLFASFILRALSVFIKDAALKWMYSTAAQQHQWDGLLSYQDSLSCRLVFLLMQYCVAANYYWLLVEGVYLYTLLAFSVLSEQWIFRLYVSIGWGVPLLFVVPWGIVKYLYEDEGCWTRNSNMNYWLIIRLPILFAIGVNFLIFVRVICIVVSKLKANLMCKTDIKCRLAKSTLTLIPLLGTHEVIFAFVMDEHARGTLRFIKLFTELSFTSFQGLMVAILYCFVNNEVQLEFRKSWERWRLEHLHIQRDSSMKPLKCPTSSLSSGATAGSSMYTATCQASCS

human glucagon receptor (human), sequence (P47871 26-477): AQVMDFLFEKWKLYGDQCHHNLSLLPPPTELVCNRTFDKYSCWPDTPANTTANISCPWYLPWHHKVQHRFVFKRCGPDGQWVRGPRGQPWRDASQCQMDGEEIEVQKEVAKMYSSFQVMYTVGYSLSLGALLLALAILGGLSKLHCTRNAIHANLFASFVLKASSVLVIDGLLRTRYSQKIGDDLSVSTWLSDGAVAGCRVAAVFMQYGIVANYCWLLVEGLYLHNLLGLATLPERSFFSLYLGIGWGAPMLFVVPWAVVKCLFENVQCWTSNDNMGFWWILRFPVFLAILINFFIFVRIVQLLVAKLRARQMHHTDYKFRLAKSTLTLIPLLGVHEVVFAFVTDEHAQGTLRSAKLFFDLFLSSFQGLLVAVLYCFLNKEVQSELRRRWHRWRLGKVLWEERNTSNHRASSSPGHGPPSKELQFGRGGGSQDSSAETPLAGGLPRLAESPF

| Binder | Relative cAMP EC50 [1] [nM] | cAMP Rel EC50 (in the presence of 1% HSA) [1] [nM] | Relative cAMP EC50 [2] [nM] | cAMP Rel EC50 (in the presence of 1% HSA) [2] [nM] | Relative cAMP EC50 (hGLP-1R) [nM] | cAMP Rel EC50 (in the presence of 1% HSA) (hGLP-1R) [nM] |
| --- | --- | --- | --- | --- | --- | --- |
| B1 | 0.126 | 7.35 | 6.8 | 627 | 1.63 | 146 |
| B2 | 0.0706 | 5.96 | 8.26 | 665 | 0.981 | 90.7 |
| B3 | 0.0278 | 1.87 | 7.47 | 651 | 1.11 | 79.8 |
| B4 | 0.0148 | 1.19 | 7.7 | 641 | 0.776 | 52.3 |
| B5 | 0.0375 | 3.92 | 16.8 | 1250 | 0.658 | 55 |
| B6 | 0.0418 | 4.63 | 5.57 | 691 | 1.53 | 88.9 |
| B7 | 0.0291 | 1.81 | 8.53 | 657 | 1.16 | 72.1 |
| B8 | 0.0661 | 7.31 | 6.81 | 901 | 1.28 | 111 |
| B9 | 0.0685 | 6.78 | 6.34 | 819 | 0.992 | 94 |
| B10 | 0.0405 | 2.7 | 7.09 | 753 | 0.625 | 53.9 |
| B11 | 0.0222 | 1.17 | 8.42 | 808 | 0.95 | 63.4 |
| B12 | 0.0224 | 1.48 | 7.94 | 832 | 0.907 | 62.2 |
| B13 | 0.0195 | 1.48 | 6.49 | 979 | 0.403 | 34.9 |
